Each block holds one binder with its values, some of them ahead of it.
Key:
[1] = biological target: T1, murine IL-11 (Invigate, e.g., lot #C210819-09) (mouse, UniProt P47873 22-199); test: cell-based or functional assay
T1 sequence: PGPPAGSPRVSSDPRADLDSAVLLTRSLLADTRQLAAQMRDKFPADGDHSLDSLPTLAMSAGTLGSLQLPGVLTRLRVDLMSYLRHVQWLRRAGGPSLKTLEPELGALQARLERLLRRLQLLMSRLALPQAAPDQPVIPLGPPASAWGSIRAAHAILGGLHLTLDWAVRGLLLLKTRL

[2] = biological target: T2, human IL-11 (Invigate, e.g., lot #C121021-19) (human, UniProt P20809 22-199); test: cell-based or functional assay
T2 sequence: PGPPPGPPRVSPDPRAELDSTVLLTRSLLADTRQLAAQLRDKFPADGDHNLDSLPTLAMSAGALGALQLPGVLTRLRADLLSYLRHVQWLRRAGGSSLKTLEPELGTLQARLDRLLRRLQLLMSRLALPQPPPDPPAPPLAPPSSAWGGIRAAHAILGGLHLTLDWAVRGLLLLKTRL

[3] = biological target: T1, murine IL-11 (Invigate, e.g., lot …); test: Di-complex ELISA: biotinylated murine IL-11 on streptavidin plate, antibody titrated against 2 nM canine IL11RA-human-Fc (competitor)
Description: (§1) In the Di-complex ELISA format anti IL-11 antibodies are tested for the ability to interfere with the formation of complexes consisting of immobilized murine IL-11 (Invigate, e.g., lot #C210819-09) or human IL-11 (Invigate, e.g., lot #C121021-19), and murine IL11RA-Fc fusion proteins or canine IL11RA-human-Fc fusion protein (FIG. 17a, b).
(§2) The assay is performed using streptavidin coated microtiter plates (Greiner bio-one, #781997). In a first step, 10 nM biotinylated mouse IL-11 (Invigate, Germany, e.g., lot #C210819-09) or human IL-11 (Invigate, Germany, e.g., lot #C121021-19) is coated in 25 μl PBS on the plate at 4° C. overnight. Next day, the plate is washed three times with 50 μl PBST and then blocked with 50 μl SmartBlock (Candor, #113125) for one hour at room temperature (RT). After additional three washes with PBST, 25 μl of a mixture of the murine anti IL-11 antibody and recombinant canine IL11RA-Fc fusion protein (Sino Biological, #70078-D02H) in PBS-T, 10% Smartblock are added simultaneously to the plate and incubated for one hour at RT. […] After three additional washes with PBS-T, 25 μl anti-human-POD (Sigma, #A0170) in PBS-T, 10% Smartblock is added and incubated for 1 hour at RT. After a final three washes with PBS-T, 25 μl AmplexRed (Fisher Scientific, A12222), 1/1000 in PBS, 0,003% H₂O₂, is added as substrate and incubated for 15 min at RT in the dark. Then, the fluorescence is measured with a plate reader at 535/595 nm. Signals from dose responses were used to calculate IC50 values (GraphPad Prism). Efficacy was calculated as [(signal measured at lowest antibody concentration−signal measured at the highest antibody concentration)×100] divided by (signal measured at lowest antibody concentration−signal measured in the absence of IL11Ra).

[4] = biological target: T2, human IL-11 (Invigate, e.g., lot …); test: Tri-complex ELISA: antibody titrated against 8 nM human IL-11, 2 nM human gp130-human-Fc and 2 nM murine IL11RA-murine-Fc
Description: (§3) In the Tri-complex ELISA format IL-11 antibodies are tested for their ability to inhibit the formation of a complex consisting of murine or human gp130-Fc fusion protein, with murine or human IL-11, and a murine IL11RA-Fc fusion protein. The assay format was adapted according to FIG. 18 (a, b), depending on whether murine or human IL-11 IgG antibodies were tested.
(§4) The assay was performed using High Binding microtiter plates (Greiner, #781077). In a first step, 25 μl of goat anti human IgG (Sigma, #12136), diluted 1:1000 in coating buffer (Candor, #121125) was coated on the plate at 4° C. overnight. Next day, the plate was washed one time with 50 μl PBST and then blocked with 50 μl SmartBlock (Candor, #113125) for one hour at room temperature (RT). […] After three additional washes of the coated and blocked microtiter plate with PBS-T, 25 μl of each mixture were added and the assay plate was incubated for one hour at room temperature. After three additional washes, anti-mouse-gp130 biotinylated antibody (R&D, #BAF468) or anti-human gp130 biotinylated antibody (R&D, #BAF228), both 1:1000 in 10% SmartBlock PBS-T, was added and incubated for 1 hour at RT. After three additional washes, a Streptavidin-Peroxidase conjugate (Sigma, #S5512) 1:1000 in SmartBlock PBS-T was added and incubated for one hour at room temperature. After a final three washes, AmplexRed (Fisher Scientific, A12222), 1/1000 in PBS, 0,003% H₂O₂, was added as substrate and incubated for 15 min at RT in the dark. Then, the fluorescence was measured with a plate reader at 535/595 nm. Signals from dose responses were used to calculate IC50 values using GraphPad Prism software.

[5] = biological target: T1, murine IL-11 (Invigate, e.g., lot …); test: SPR, Biacore T200, 25 C; antibody captured via anti-mouse Fc, IL-11 as analyte, 1:1 Langmuir fit
Description: (§5) Antibodies were captured via anti-mouse Fc IgGs (“Mouse antibody capture kit, Order No. BR100383, Cytiva) covalently amine coupled to a Series S CM5 sensor chip (Cytiva). The amine coupling was carried out according to the manufacturer's instructions using 1-ethyl-3-(3-dimethylaminopropyl) carbodiimide hydrochloride (EDC), N-hydroxysuccinimide (NHS) and ethanolamine HCl, pH 8.5 (“Amine Coupling Kit” BR-1000-50, Cytiva.). Human IL-11 (Invigate, e.g., lot #C121021-19), and murine IL-11 (Invigate, e.g., lot #C210819-09) were used as analytes. […] Based on that experiment an IL-11 concentration range was chosen to optimally determine kinetics and affinity of anti-IL-11 antibodies in multicycle kinetics mode. The sensor surface was regenerated with glycine pH 1.7 after each antigen injection. Obtained sensorgrams were double referenced (subtraction of reference flow cell signal and buffer injection) and were fitted to a 1:1 Langmuir binding model to derive kinetic data using the Biacore T200 Evaluation software or the Biacore Insight software.

[6] = biological target: T2, human IL-11 (Invigate, e.g., lot …); test: as above
Description: as §5

[7] = biological target: T1, murine IL-11 (Invigate, e.g., lot …); test: Tri-complex ELISA: antibody titrated against 8 nM murine IL-11, 2 nM murine gp130-human-Fc and 2 nM murine IL11RA-murine-Fc
Description: as §3, §4

[8] = biological target: T2, human IL-11 (Invigate, e.g., lot …); test: Di-complex ELISA: biotinylated human IL-11 on streptavidin plate, antibody titrated against 2 nM canine IL11RA-human-Fc (competitor)
Description: as §1, §2

Efficacy (%), Stat3 reporter gene assay, mouse Il11ra, 3.13 nM mIL-11 [1]: 60% | IC50 [M], Stat3 reporter gene assay, HEK 293F transfected with mouse Il11ra, 3.13 nM mIL-11 [1]: 9.5e-08 M | Efficacy (%), Stat3 reporter gene assay, human IL11RA, 0.78 nM hIL-11 [2]: 54.3% | IC50 [M], Stat3 reporter gene assay, HEK 293F transfected with human IL11RA, 0.78 nM hIL-11 [2]: 1.1e-07 M | Efficacy (%) [3]: 68.9% | IC50 [3]: 12 nM | Efficacy (%) [4]: 60.6% | IC50 [4]: 92 nM | Kd [5]: 10 nM | Kd [6]: 53 nM | Efficacy (%) [7]: 36.3% | IC50 [7]: 170 nM | Efficacy (%) [8]: 42% | IC50 [8]: 54 nM
B1: TPP-18063 (antibody, mouse IgG1, V domains shown)
VH: EVQLLESGGGLVQPGGSLRLSCAASGFTFSDYYMSWIRQAPGKGLEWVSGINWNGGSTGYADSVKGRFTISRDNSKNTLYLQMNSLRAEDTAVYYCATWDGPFDYWGQGTLVTVSS
VL: QSVLTQPPSASGTPGQRVTISCTGSSSNIGAGYDVHWYQQLPGTAPKLLIYYDDLLPSGVPDRFSGSKSGTSASLAISGLRSEDEADYYCQSYDSSLGGSVFGGGTKLTVLG
notes: mIgG1, Lambda

Efficacy (%), Stat3 reporter gene assay, mouse Il11ra, 3.13 nM mIL-11 [1]: 84.1% | IC50 [M], Stat3 reporter gene assay, HEK 293F transfected with mouse Il11ra, 3.13 nM mIL-11 [1]: 2.67e-09 M | Efficacy (%), Stat3 reporter gene assay, human IL11RA, 0.78 nM hIL-11 [2]: 20.7% | IC50 [M], Stat3 reporter gene assay, HEK 293F transfected with human IL11RA, 0.78 nM hIL-11 [2]: 4.83e-09 M | Efficacy (%) [3]: 72.7% | IC50 [3]: 2.5 nM | Efficacy (%) [4]: 7.3% | Kd [5]: 0.72 nM | Kd [6]: 48 nM | Efficacy (%) [7]: 37.1% | IC50 [7]: 66 nM | Efficacy (%) [8]: 19.6%
B2: TPP-18068 (antibody, mouse IgG1)
heavy: EVQLLESGGGLVQPGGSLRLSCAASGFTFSSYGMHWVRQAPGKGLEWVSVISYDGSYKYYADSVKGRFTISRDNSKNTLYLQMNSLRAEDTAVYYCAAGVPDYWGQGTLVTVSSAKTTPPSVYPLAPGSAAQTNSMVTLGCLVKGYFPEPVTVTWNSGSLSSGVHTFPAVLQSDLYTLSSSVTVPSSTWPSETVTCNVAHPASSTKVDKKIVPRDCGCKPCICTVPEVSSVFIFPPKPKDVLTITLTPKVTCVVVDISKDDPEVQFSWFVDDVEVHTAQTQPREEQFNSTFRSVSELPIMHQDWLNGKEFKCRVNSAAFPAPIEKTISKTKGRPKAPQVYTIPPPKEQMAKDKVSLTCMITDFFPEDITVEWQWNGQPAENYKNTQPIMDTDGSYFVYSKLNVQKSNWEAGNTFTCSVLHEGLHNHHTEKSLSHSPGK
light: QSVLTQPPSASGTPGQRVTISCTGSSSNIGAGYDVHWYQQLPGTAPKLLIYSNNERPSGVPDRFSGSKSGTSASLAISGLRSEDEADYYCAAWDDSLNGPVFGGGTKLTVLGQPKSSPSVTLFPPSSEELETNKATLVCTITDFYPGVVTVDWKVDGTPVTQGMETTQPSKQSNNKYMASSYLTLTARAWERHSSYSCQVTHEGHTVEKSLSRADCS
notes: mIgG1, Lambda
